{"source": "paper PMC8935074", "about": "“Phosphorylated and Phosphomimicking Variants May Differ—A Case Study of 14-3-3 Protein” (Frontiers in Chemistry, 2022)", "molecules": {"B1": {"name": "ζ_S58E_Ntail, fluorescently labelled (natural protein)", "chain": "SVDACKGSSGGMDKNELVQKAKLAEQAERYDDMAAAMKSVTEQGAELSNEERNLLSVAYKNVVGARRSEWRVVSSIEQKTEGAEKKQQMAREYREKIETELRDICNDVLSLLEKFLIPNASQAESKVFYLKMKGDYYRYLAEVAAGDDKKGIVDQSQQAYQEAFEISKKEMQPTHPIRLGLALNFSVFYYEILNSPEKAASLAKTAFDEAIAELDTLSEESYKDSTLIMQLLRDNLTLWTSDTQGDEAEAGEGGEN", "modifications": "Cys5 (of the added N-terminal tail) labelled with AlexaFluor647-C5-maleimide (AF647) in one preparation and AlexaFluor488-C2-maleimide (AF488) in the other"}, "B2": {"name": "14-3-3ζ S58D (natural protein, UniProt P63104 1-245, looked up)", "chain": "MDKNELVQKAKLAEQAERYDDMAAAMKSVTEQGAELSNEERNLLSVAYKNVVGARRSDWRVVSSIEQKTEGAEKKQQMAREYREKIETELRDICNDVLSLLEKFLIPNASQAESKVFYLKMKGDYYRYLAEVAAGDDKKGIVDQSQQAYQEAFEISKKEMQPTHPIRLGLALNFSVFYYEILNSPEKAASLAKTAFDEAIAELDTLSEESYKDSTLIMQLLRDNLTLWTSDTQGDEAEAGEGGEN", "notes": "14-3-3ζ protein with C25A C189A and the phosphomimicking mutation S58D; source: E. coli BL21(DE3) CodonPlus RIL, purified (protocol of Hritz et al., 2014)"}, "B3": {"name": "14-3-3ζ S58E (natural protein, UniProt P63104 1-245, looked up)", "chain": "B2 chain with D58E", "notes": "14-3-3ζ protein with C25A C189A and the phosphomimicking mutation S58E; source: E. coli BL21(DE3) CodonPlus RIL, purified (protocol of Hritz et al., 2014)"}, "B4": {"name": "14-3-3ζ S57D_S58D (natural protein, UniProt P63104 1-245, looked up)", "chain": "B2 chain with S57D", "notes": "also called double phosphomimicking mutant; source: E. coli BL21(DE3) CodonPlus RIL, purified (protocol of Hritz et al., 2014)"}}, "key": {"14-3-3ζ [1]": {"molecular_target": "14-3-3ζ (UniProt P63104)", "test": "AUC sedimentation velocity, 36.5 μM", "conditions": "sites S58"}, "14-3-3ζ [2]": {"molecular_target": "14-3-3ζ (UniProt P63104)", "test": "SEC-RALS, 36.5 μM", "conditions": "sites S58"}, "14-3-3ζ L12E_M78K": {"molecular_target": "14-3-3ζ L12E_M78K (UniProt P63104)", "test": "SEC-RALS; 5 mg/mL (183 μM) pζ and ζm in PBS pH 7.4, 20°C, triplicates; KD of dimerisation estimated from the protein percentage in the dimeric and monomeric peaks; dimer to monomers"}, "14-3-3ζ WT [3]": {"molecular_target": "14-3-3ζ WT (UniProt P63104)", "test": "AUC; sedimentation velocity, 1 mg/mL (36.5 μM) protein in 50 mM Tris-HCl, 300 mM NaCl, 3 mM NaN3, pH 8, 20°C, 50,000 RPM, c(s) distribution; dimer to monomers"}, "14-3-3ζ WT [4]": {"molecular_target": "14-3-3ζ WT (UniProt P63104)", "test": "SEC-RALS; size-exclusion chromatography with right-angle light scattering, 1 mg/mL (36.5 μM) protein in PBS pH 7.4, Zenix SEC 300 column, 20°C; dimer to monomers"}, "[5]": {"molecular_target": "14-3-3ζ phosphorylated at Ser58 (UniProt P63104)", "test": "SEC-RALS; 5 mg/mL (183 μM) pζ and ζm in PBS pH 7.4, 20°C, triplicates; KD of dimerisation estimated from the protein percentage in the dimeric and monomeric peaks; dimer to monomers"}, "FRET; 15°C": {"molecular_target": "the molecule itself", "test": "FRET; 15°C"}, "[6]": {"molecular_target": "the molecule itself", "test": "FRET or BRET; kinetic FRET assay in a cuvette: 200 nM AF647-labelled plus 200 nM AF488-labelled ζ_S58E_Ntail, then 100-fold excess of non-labelled ζ_S58E; 20 mM sodium phosphate pH 6.8, 15°C; profile fitted for KD and koff; dimer to monomers"}, "[7]": {"molecular_target": "the molecule itself", "test": "SEC-RALS; 4.5 mg/mL (164 μM) ζ_S58D and ζ_S57D_S58D in PBS pH 7.4, 20°C, triplicates; KD of dimerisation calculated from the observed MW as weighted average of dimer and monomer; dimer to monomers"}, "[8]": {"molecular_target": "the molecule itself", "test": "AUC; sedimentation velocity, 1 mg/mL (36.5 μM) protein in 50 mM Tris-HCl, 300 mM NaCl, 3 mM NaN3, pH 8, 20°C, 50,000 RPM, c(s) distribution; dimer to monomers"}, "[9]": {"conditions": "reference: non-phosphorylated ζ"}}, "note": "Numbering of substitutions follows the chain as printed. Numbers in names are those of the source.", "data": [{"molecule": "14-3-3ζ (from UniProt P63104) pζ (PKA co-expressed, purified pS58 form)", "values": [{"measurement": "other: apparent MW", "setting": "14-3-3ζ [1]; [9]", "result": "weaker; reference 56.4"}, {"measurement": "other: apparent MW", "setting": "14-3-3ζ [2]; [9]", "result": "weaker; reference 54.5"}]}, {"molecule": "14-3-3ζ (from UniProt P63104) ζ_S57D_S58D", "values": [{"measurement": "other: apparent MW", "setting": "14-3-3ζ [1]; reference: ζ wild type", "result": "weaker; reference 56.4"}, {"measurement": "other: apparent MW", "setting": "14-3-3ζ [2]; reference: ζ wild type", "result": "weaker; reference 54.5"}]}, {"molecule": "14-3-3ζ (from UniProt P63104) ζ_S58D", "values": [{"measurement": "other: apparent MW", "setting": "14-3-3ζ [1]; reference: ζ wild type", "result": "weaker; reference 56.4"}, {"measurement": "other: apparent MW", "setting": "14-3-3ζ [2]; reference: ζ wild type", "result": "weaker; reference 54.5"}]}, {"molecule": "14-3-3ζ (from UniProt P63104) ζ_S58E", "values": [{"measurement": "other: apparent MW", "setting": "14-3-3ζ [1]; reference: ζ wild type", "result": "same; reference 56.4"}, {"measurement": "other: apparent MW", "setting": "14-3-3ζ [2]; reference: ζ wild type", "result": "weaker; reference 54.5"}]}, {"molecule": "14-3-3ζ L12E_M78K (from UniProt P63104 1-245) (natural protein)", "values": [{"measurement": "Kd", "setting": "14-3-3ζ L12E_M78K", "result": 4600, "unit": "µM"}]}, {"molecule": "14-3-3ζ WT (from UniProt P63104 1-245) (natural protein)", "values": [{"measurement": "stoichiometry N", "setting": "14-3-3ζ WT [3]", "result": 2}, {"measurement": "stoichiometry N", "setting": "14-3-3ζ WT [4]", "result": 2}]}, {"molecule": "14-3-3ζ phosphorylated at Ser58 (from UniProt P63104 1-245) (natural protein)", "values": [{"measurement": "Kd", "setting": "[5]", "result": 7600, "unit": "µM"}]}, {"molecule": "B1", "values": [{"measurement": "koff", "setting": "FRET; 15°C", "result": 0.731, "unit": "s⁻¹"}, {"measurement": "Kd", "setting": "[6]", "result": "0.35 ± 0.25", "unit": "µM"}]}, {"molecule": "B2", "values": [{"measurement": "Kd", "setting": "[7]", "result": "132 ± 7", "unit": "µM"}]}, {"molecule": "B3", "values": [{"measurement": "stoichiometry N", "setting": "[8]", "result": 2}]}, {"molecule": "B4", "values": [{"measurement": "Kd", "setting": "[7]", "result": "348 ± 19", "unit": "µM"}]}]}
